Experimental data taken from paper PMC2685089.

Experiments:
Test in all cases: EMSA
Up1 [1] = target: T1, Up1 (UniProt P09651-2 2-196)
Up1 [2] = target: T1, Up1; remark: listed apart in the source
hnRNP A1 (A1) = hnRNP A1 (A1) (UniProt P09651-2 2-320)

AGGGAGGGCGCTGGGAGGAGGG (structured_DNA) [CKIT]
binding result (Up1 [1]): binds

AGGGCGGTGTGGGAAGAGGGAAGAGGGGGAGG (structured_DNA) [32R]
Kd (Up1 [2]): ~50 nM

B1: dsNHE (32R:32Y) (dsDNA)
DNA 1: AGGGCGGTGTGGGAAGAGGGAAGAGGGGGAGG
DNA 2: CCTCCCCCTCTTCCCTCTTCCCACACCGCCCT
binding result (Up1 [1]): no binding | binding result (hnRNP A1 (A1)): no binding
